The source of these data is article PMC4501363.

For this test, the target named is actin-related protein 1 (human (endogenous in HEK293T)) (UniProt P61163). Put plainly: co-sedimentation.

The substance “actin-related protein 1 (from UniProt P61163 1-376) (natural protein)” showed a percent of Arp1 in the monomer/dimer pool of less than 5%.
